The target in one assay is human IgM (Homo sapiens, UniProt P01871). The experiment in a line: Isotype specificity ELISA of sera of immunized rabbits: IgM. The settings on record: FIG. 12; serum 1:50. The class given is in vivo. On the procedure:
The isotype specificity of the anti-human IgE immune response in the immunized rabbits is monitored by ELISA: microtiter plate wells are each coated with 3 μg of human IgE (SUS-11), IgA, IgG, and IgM, respectively, and incubated with 100 μl of serum samples, diluted 1:50 with ELISA incubation buffer. Rabbit antibodies bound by the immobilized human antibodies are detected by incubation with goat garIgG-HRP. The measured OD405 values are corrected by the read-out obtained with 1:50 diluted pre-immune serum of each corresponding rabbit, diluted 1:50. The data given in FIG. 12 represents mean values of duplicate measurements.

The next assay concerns the target T1, FcεRI (Homo sapiens, UniProt P12319).
T1 sequence (P12319 26-257): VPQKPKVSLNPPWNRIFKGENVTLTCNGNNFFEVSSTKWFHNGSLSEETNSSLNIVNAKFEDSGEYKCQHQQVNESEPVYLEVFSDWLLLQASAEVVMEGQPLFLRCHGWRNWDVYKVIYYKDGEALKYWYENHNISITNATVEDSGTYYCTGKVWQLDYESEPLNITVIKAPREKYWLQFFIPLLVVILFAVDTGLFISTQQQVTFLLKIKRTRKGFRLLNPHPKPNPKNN
The settings on record: read-out: affinity of IgE for FcεRI (Kd); cited from earlier work.

The source of these data is US6610297B1, “Peptide immunogens for vaccination against and treatment of allergy” (Novartis AG, priority 1996, dated 2003).

Chain of human IgM (P01871 1-433 limits assumed): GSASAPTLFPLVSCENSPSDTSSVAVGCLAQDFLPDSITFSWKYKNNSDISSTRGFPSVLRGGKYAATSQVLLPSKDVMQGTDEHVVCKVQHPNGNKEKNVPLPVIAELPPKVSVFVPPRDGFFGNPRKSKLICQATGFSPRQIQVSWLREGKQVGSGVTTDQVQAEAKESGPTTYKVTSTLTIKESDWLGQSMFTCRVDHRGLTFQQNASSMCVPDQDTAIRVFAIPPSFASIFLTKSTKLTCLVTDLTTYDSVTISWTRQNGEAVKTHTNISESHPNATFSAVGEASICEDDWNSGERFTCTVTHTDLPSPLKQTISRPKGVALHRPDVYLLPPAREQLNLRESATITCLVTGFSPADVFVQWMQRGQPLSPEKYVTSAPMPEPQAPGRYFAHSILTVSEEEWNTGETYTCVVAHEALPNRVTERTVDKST
Chain of human IgM (P01591 23-159 partner): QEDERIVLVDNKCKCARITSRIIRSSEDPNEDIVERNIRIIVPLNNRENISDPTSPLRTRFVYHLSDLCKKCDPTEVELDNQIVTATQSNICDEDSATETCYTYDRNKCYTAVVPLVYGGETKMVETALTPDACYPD

Take cyclic GEFCRRHNYGFWVCGDPA-KLH [SDS214]: in the assay with human IgM, the “Recognition of human IgM by serum of immunized rabbit” value is reported as “partial recognition of human IgM”.
For the substance immunoglobulin E [IgE], the dissociation constant (Kd) at FcεRI is roughly 0.1 nM.
